The target of this experiment is specific IgE from a pool of sera from plantain-allergic patients. Description: inhibition ELISA: nPla I 1 coated on plate, pooled-serum IgE inhibited by rPla I 1.0101, detection with HRP-labeled anti-human IgE. A general note: In an ELISA, binding on a coated surface is turned into a signal by an enzyme label.

B1: recombinant Pla I 1 allergen, variant 0101 (rPla I 1.0101), expressed in Pichia pastoris (protein)
chain: ETQTSHPAKFHVEGEVYCNVCHSRNLINELSERMAGAQVQLDCKDDSKKVIYSIGGETDQDGVYRLPVVGYHEDCEIKLVKSSRPDCSEIPKLAKGTIQTSKVDLSKNTTITEKTRHVKPLSFRAKTDAPGC
modifications: partly N-glycosylated (glycosylated 22 kDa and non-glycosylated 17 kDa forms; potential N-glycosylation site at position 107)
Turning to B1, the % inhibition of IgE-binding turned out to be 80%.

Source of the values: patent US20040071717A1.
